Data from the supplement of paper PMC12042874.
± gives the uncertainty stated by the source.

Assay: amyloid nucleation score (Sup35N fusion, yeast selection) (log enrichment); library NNK1; higher = more nucleation; inactive = no reads after selection
Outline: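 Psi-negative yeast expressed Sup35N fused to peptides of 20 random codons. They were induced 24 hours with 100 μM copper sulfate, grown 7 days at 30°C without adenine and uracil, and their plasmid inserts from input and output were Illumina-sequenced. The nucleation score is the DiMSum log enrichment of output over input reads, centred on the mode score of non-aggregating sequences. Sequences with under 100 input reads were excluded.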

Substance	amyloid nucleation score
NLILDQVNTYSLCSTIFI	7.291 ± 0.058
KNVYDYFWLDNCYAIDIASM	0.427 ± 0.41
PGRYSISGSEHMPVYLYTFH	inactive
ASNYR	0.008 ± 0.88
VGFVLFLANSERYCDRISFG	-0.13 ± 0.97
RYISTLYEMNLKYVNVVQFH	6.416 ± 0.045
GFRSCRCVQGRANVFPYSMS	-0.103 ± 0.25
GSSTMIGMANSFVVGLDSNE	inactive
ILPLLLMWFTYCDDV	2.23 ± 0.6
RGEILCWWIGFYFVAVK	0.149 ± 0.32
FELLMDIDC	0.139 ± 0.83
FYGFRCGYLDVSL	-0.648 ± 0.33
VSLYM	0.924 ± 0.97
RSSVVWLWSHYC	0.588 ± 0.56
YIDVGICYGGDERVLFLV	1.2 ± 0.61
RSMYSQCVLIMGAPTRISGL	6.295 ± 0.054
NDTQLRISACYALRDNGEWV	1.12 ± 0.66
GVMQFENIYGFVALMRRLMF	0.668 ± 0.62
RPTGLDILS	3.56 ± 0.1
VQCVHLSNME	0.105 ± 0.72
QKMYDILVIDLYESGDRPFV	0.532 ± 0.29
LSMNICSLNSSRYKPP	2.79 ± 0.098
GFYRGVTTIFCSVFI	7.777 ± 0.07
MPPMYGRGRPMNKIGVWDYA	1.14 ± 0.51
HSWYEELMVVLNISSHGHLD	0.351 ± 0.52

Substance	amyloid nucleation score
NVRALILIKNCSPQMLRNEF	5.07 ± 0.06
GSMWGGFPVG	1.07 ± 0.85
ACTSLASFHYVLHPKYSCRV	1.2 ± 0.76
VSQVVCGMSYFGDCAIRQES	0.153 ± 0.5
QRFRTLCNLVFYLGSKVRET	0.317 ± 0.3
LVWRFS	1.56 ± 0.28
NEHAENDVTFQGNEDICVVM	-0.419 ± 0.34
VHRQMEMIIKIVWTRAYAFT	2.33 ± 0.6
FPTFLPQWTGKCFALRCGRW	inactive
TPLFRGFIMLQPRLRCDKFA	0.013 ± 0.31
YCVIHSIRLGRIHLDCFWDF	inactive
ERNSITSILKRNRLSRGFAL	2.44 ± 0.48
FDSRENETTCAMSEDMTYVV	-0.238 ± 0.22
FIRWKLVYYDIMKCPSCSHH	-0.187 ± 0.61
GYDRSGT	0.135 ± 1.2
VGFRVDFNIDLQLFLYRNEK	0.334 ± 0.81
SYFRREDCFVFKVITLFIMS	-0.675 ± 0.46
GYSLYRM	6.746 ± 0.044
VFLACNMMYDTKVQTHGYRG	4.23 ± 0.07
GAIIFLSCGWSKCFCTLWVI	-0.381 ± 0.38
YSCCRVFMCARWLRVTCNMS	0.189 ± 0.31
RLNWVYSRNNASLSGVYMKR	0.116 ± 0.24
FGMIFFLLTMALRDVCVRLR	7.24 ± 0.084
DFYTVLEKYVM	-0.157 ± 0.7
HKIHAVQLLQVRYLNKRLAG	0.96 ± 0.17

Substance	amyloid nucleation score
LHAGHSSLNALAYSFRLHDR	0.775 ± 0.52
AINSSFWSVGLILEIDMYSY	-0.148 ± 0.45
IFMSRWG	2.78 ± 0.14
ISYSYVTIIA	-0.181 ± 0.27
FDHSIVKKSQLRGFTVVLRL	1.22 ± 0.35
TTRFRNFKLRSH	inactive
VSYRTSMSVVLRCGFYCSAY	3.22 ± 0.14
GDNVFFMLERALFVVRNRRV	-0.386 ± 0.86
LPCHLPRLVPKGYPSFTLYK	-0.672 ± 0.4
LGLDGCSSMLEEDFCR	0.45 ± 0.52
RYFSWFYVN	-0.089 ± 0.93
GIRCISLRKGHAGW	-1.65 ± 2.4
DARSNSVLYQRCSTSRGRSG	-0.615 ± 0.84
GKPWSSCHENSLINMDHSDV	inactive
YIKWSMIRFT	-0.66 ± 0.46
GSSGAWVCSGCL	-0.626 ± 1.2
RSWPHGCVAEQNTCSPHKLA	1.48 ± 0.55
EENLSSPWMPMVPIDTINWF	1.67 ± 0.52
FDVFMRYG	inactive
SLTCWG	0.436 ± 0.33
YIFAAWGGNKTHLCGQIKY	0.862 ± 0.18
RYRCSKVRRAMSKLTYVGMA	4.18 ± 0.07
FRKGDILRTFSMFKSKYTVG	0.839 ± 0.65
MRNIVWCCSVVLCCLFGVLF	0.385 ± 0.69
IWMGCYVNVARSK	1.03 ± 0.22

Substance	amyloid nucleation score
RGYQNSLFTGMRRSSGSWSI	0.43 ± 0.77
LLGYLAMCS	1.01 ± 0.23
HALRSTLYMGSSVFLNAMDS	0.053 ± 1.1
MLSTTLALLTERSFGAY	0.021 ± 0.39
VIDYVGFRHTGGGSVGFVGG	-0.387 ± 0.65
EGTLSMALTL	0.849 ± 0.49
HEGRS	-1.25 ± 1.2
CHVSLYRMDIGLQYRTGRIW	0.645 ± 0.52
FATRTLVYVYFRWCHDDLSH	0.584 ± 0.56
FSRYLPKLNSLAKDSIPVGR	inactive
KGNYFRVTVYSAGFIQLLMS	6.393 ± 0.049
KVVDNAYSSDSLYFVGLFFW	1.25 ± 0.84
SIAFYFFKPLYVLVPNMFGY	6.15 ± 0.073
ISYESWVLRGIARGFQGLVG	-1.09 ± 0.7
LAKFESSEVACSLFFAISLA	-0.997 ± 0.94
FESRRVKNGID	inactive
KWSWGGPRDMIFKDTLAGAR	inactive
VRLFLCFARSMDVRYFILVG	0.459 ± 0.57
CCYNFYDSGANCHLFFVSFR	-0.817 ± 1.7
ELSVNMSRDLSVTGLVQGRR	0.794 ± 0.36
SYFGYNVIMEIHTI	-0.122 ± 0.31
LVALDNAENFRSRKQWIGIR	-0.599 ± 1.2
NGWTFYCSCSWCGI	8.306 ± 0.049
QAKGLALLCV	-2.17 ± 2.7
LYRVTYSNACMFGVVG	0.695 ± 0.54

Substance	amyloid nucleation score
YVVCRTFSVPAYSLRLQLRR	0.353 ± 0.26
FIEQGHYNHTGFGSYGWRF	0.972 ± 0.29
YSRSGRTTNLAPNLHLRTMS	0.136 ± 1.2
GFFHGHIGLQHMCELQCCSG	inactive
YVFRPLVERDRSLMKLVQQL	inactive
STNECSLLMGDSCGHHRSHC	-0.171 ± 0.9
MSLDAFV	inactive
RNWDMGHKQP	2.66 ± 0.12
VVDFGSGCI	0.423 ± 0.46
VIGLSQWVNSLSYRFEMQNL	4.72 ± 0.094
RIFFYTISYPLILIKVFCYL	inactive
RYLVALFSMYKWYGVEKDWK	0.954 ± 0.54
TFSGFYGVYYNQILVGSLIQ	inactive
PAVIILVIKMHGGIKGKDGR	-0.755 ± 0.44
NFRWILSSAMDAIFPYVAFV	1.52 ± 0.78
MTSLDFNYGISKLESSFYMY	-0.739 ± 0.29
NSFSDSHRWKPGRRNRCKRG	1.07 ± 0.97
ILYNLGTWFRLC	-0.496 ± 0.61
PSFNLNFVRINLQDGNMRLS	7.038 ± 0.048
SLIFCSYSNDLFHSWNHKFR	-0.068 ± 0.7
LFNGLYHLVMRVMWRRLV	-0.061 ± 1.2
SETLTMFRYCISIRDKGPQG	1.24 ± 0.37
QFVQAGRKLGNNVDGWKYVC	-0.997 ± 0.5
SYKLVRTLNG	inactive
RRSESCMFYVMWYGNRYLEG	0.638 ± 0.18

Substance	amyloid nucleation score
GVLYSDTLT	1.5 ± 0.14
FSSQYQMSAGVF	-0.013 ± 0.56
GCTSGGLCIGPPRSV	0.906 ± 1
FVQFTCSIRDYCA	0.033 ± 0.97
RYFVYLSVFDYFINHLDIRW	-0.79 ± 0.42
GLIRSSVEVMLHGVHRWDPY	0.037 ± 0.42
AFNGVSNLEWL	-0.18 ± 1.7
SNLRSVMKRNYTVRLFCVG	inactive
HWSMCRTGFWSLYKMDVTQT	0.833 ± 0.7
YEYQEKFSFYIEVLGKDSLS	-0.864 ± 0.41
EDSGNVIGEYFWKF	-1.44 ± 1.9
VSYSGQSLICYWVLEASFVV	-0.05 ± 0.31
ARYYLLFAFDNNFCIGVVGS	4.23 ± 0.099
SLSQG	0.441 ± 0.93
RLLRPFGWLANSRLTTVWFH	-0.122 ± 0.68
VHFRYNIVTVSPQVIKFFST	5.36 ± 0.071
GSVVYVIQGDMKRVLGFNGM	5.42 ± 0.096
IGAHRNRIWIWYCPVVPNAT	3.1 ± 0.2
GCNSMTRLLRGAWPPPYWRG	0.274 ± 0.77
CGYSKVPMPCALAECGGRPR	0.054 ± 0.45
MRDTFFLDRMQITLCSW	0.306 ± 0.33
PSLYACGQKPRSEALDARWL	inactive
KCIDMVFKY	0.143 ± 0.39
AKLYMCSCINCTASHEITYF	8.419 ± 0.045
YVAFEKTL	inactive

Substance	amyloid nucleation score
GSCCVKCDIHI	0.167 ± 0.53
LSQAASNLLSRNLVPLSWLV	inactive
FENCHHYGTARFKDLPRSIV	-0.208 ± 0.66
PFTVTKFRSYEISVINLPNW	1.34 ± 0.11
EKLRIVHQRRGRVHFNSGAI	-0.482 ± 0.41
TQDIILDNSHDATHQHTRRA	-0.243 ± 1
MGRLRARRSLVLVA	inactive
NYYFAKSLLHI	1.27 ± 0.79
GSDWTRMMNVLAGGGGVGSE	-0.484 ± 0.58
CCVGWCFPACLLFST	7.42 ± 0.079
FQYLNLGISRHSARWTCTFL	-0.698 ± 1.4
MYGGKCSNGPCMYSVGIGTW	1.39 ± 0.34
CLFLDWMPM	0.548 ± 0.84
DRGDLAFSFSGQRTGGKEPR	-0.219 ± 0.51
YTRFN	-1.66 ± 1.6
CNNSSGRVVRLCSMDGGLLG	-0.021 ± 0.65
DVRGRHRCRFGSQQTKRQS	0.586 ± 0.8
MNVFVSRNYVYLKYEFRSLA	6.642 ± 0.051
VKVVALRIWRSEDLVVRFWG	0.562 ± 0.78
